Test results published in patent US20220348635A1, “COMPOSITIONS AND METHODS FOR NEUROLOGICAL DISEASES” (Coda Biotherapeutics, Inc., priority 2019, published 2022).
Residue numbers refer to the chain shown, from its start. Names may count otherwise.

B1: Y115D, S170T in SEQ ID NO: 33: engineered chimeric α7-nAChR/GlyRα1 LGIC receptor: SEQ ID NO: 33 with substitutions Y115D and S170T (protein)
chain: MRCSPGGVWLALAASLLHVSLQGEFQRKLYKELVKNYNPLERPVANDSQPLTVYFSLSLLQIMDVDEKNQVLTTNIWLQMSWTDHYLQWNVSEYPGVKTVRFPDGQIWKPDILLDNSADERFDATFHTNVLVNSSGHCQYLPPGIFKSSCPMDLKNFPMDVQTCKLKFGTWSYGGWSLDLQMQEADISGYIPNGEWDLVGIPGKRSERFYECCKEPYPDVTFTVTMRRRMGYYLIQMYIPSLLIVILSWISFWINMDAAPARVGLGITTVLTMTTQSSGSRASLPKVSYVKAIDIWMAVCLLFVFSALLEYAAVNFVSRQHKELLRFRRKRRHHKSPMLNLFQEDEAGEGRFNFSAYGMGPACLQAKDGISVKGANNSNTTNPPPAPSKSPEEMRKLFIQRAKKIDKISRIGFPMAFLIFNMFYWIIYKIVRREDVHNQ
modifications: synthetic sequence of chimeric LGIC
B2: Y115D, L131E in SEQ ID NO: 33: engineered chimeric α7-nAChR/GlyRα1 LGIC receptor: SEQ ID NO: 33 with substitutions Y115D and L131E (protein)
chain: B1 chain with L131E, T170S
modifications: synthetic sequence of chimeric LGIC

What was measured:
Type in all cases: cell-based
[1] = YFP quench plate reader assay, response to TC-6987; conditions: LX293T YFP reporter cells; for percent quench of YFP fluorescence, 1 uM tc6: 1 uM TC-6987; for percent quench of YFP fluorescence, 10 uM tc6: 10 uM TC-6987; for percent quench of YFP fluorescence, 500 uM tc6: 500 uM TC-6987
From the text: (§1) FIGS. 1A-FIG. 1G show the heat maps of the percent quench of YFP fluorescence in the mutants of the engineered chimeric receptor SEQ ID NO:33 that comprise the indicated double amino acid substitutions following stimulation by various doses of either acetylcholine or the indicated non-native ligand. Ligand doses are written across the top of each chart. Numbers in the boxes indicate the absolute amount of quench observed. Dark blue=80% maximal quench of YFP reporter. Light blue=quench of 30-80%. White=10-30%. Orange=0-10% quench. Negative values represent non-responders that have a negative quench due to a stimulation artifact. SEQ ID NO:29 is a non-responding chimera used as a negative control. Abbreviations for non-native ligand names: abt: ABT-126; ach: acetylcholine; apn: APN-1125; azd: AZD-0328; brd: TC-5619; fac: RG3487; tc6: TC-6987.
(§2) Tables 2-8 below lists percent quench of YFP fluorescence following stimulation of the indicated engineered receptor by various doses of either acetylcholine or the non-native ligand.
(§3) To screen these mutant LGICs for those having novel response profiles to ligands, an anion reporter assay was developed to assess the function of channels in a high throughput format. In this assay, cells expressing a YFP reporter whose fluorescence is quenched in the presence of anion are transfected with DNA encoding the channel of interest. Upon exposure to ligand, channels that are activated will flux anion, resulting in a dose-dependent quench of the YFP that can be detected on a plate reader.
(§4) Lenti-X 293T cells (LX293T, Clontech) were maintained in DMEM containing 10% FBS and 1% penicillin/streptomycin (Invitrogen). […] Two days before assay, cells were split at a density of 20,000 cells/well in a 96-well tissue culture plate coated with poly-d lysine (Thermo Scientific). The next day, the cells were transiently transfected with 0.1 μg of DNA per well using standard Fugene protocol (Promega). On the day of assay, cells were washed 2 times in 1× extracellular solution (1×ECS: 140 mM NaCl, 5 mM KCl, 1 mM MgCl2, 2 mM CaCl2, 10 mM HEPES, 10 mM glucose, pH 7.2, mOsms 300). After the last wash, 100 μL of 1×ECS was added to the wells and the plate was incubated at 37° C. for 30 min. While incubating the plate, the drugs were diluted to a 2× concentration in 1×ECS-NaI (same components as 1×ECS except the 140 mM NaCl was replaced by 140 mM NaI). The plates were then read on a Flexstation3 (Molecular Devices). Each well, 8 wells at a time, of the plate is read for 2 min using a Flexstation3 (Molecular Devices) as follows: 1) a baseline YFP fluorescence is read for 17 sec, 2) 100 μL of ligand is added, and 3) the changes in YFP fluorescence are then measured every 1.3 sec for the remaining time.
(§5) FIG. 1 provides heat maps of the percent quench of YFP fluorescence following stimulation by various doses of either acetylcholine or the non-native ligand as indicated in the Figure. A positive fluorescence signal, as indicated by blue shaded cells, indicate that the engineered receptor is activated by the non-native ligand at that concentration. […] Table 12 lists the EC50 values for the indicated double mutants to acetylcholine (Ach) and TC-5619 as determined from the YFP fluorescence plate reader experiment.

[2] = YFP quench plate reader assay, response to acetylcholine; conditions: LX293T YFP reporter cells; for percent quench of YFP fluorescence, 10 uM ach: 10 uM acetylcholine; for percent quench of YFP fluorescence, 100 uM ach: 100 uM acetylcholine; for percent quench of YFP fluorescence, 1 mM ach: 1 mM acetylcholine; for percent quench of YFP fluorescence, 3 mM ach: 3 mM acetylcholine
From the text: as §1, §2, §3, §4, §5

[3] = YFP quench plate reader assay, response to ABT-126; conditions: LX293T YFP reporter cells; for percent quench of YFP fluorescence, 50 nM abt: 50 nM ABT-126; for percent quench of YFP fluorescence, 100 nM abt: 100 nM ABT-126; for percent quench of YFP fluorescence, 300 nM abt: 300 nM ABT-126; for percent quench of YFP fluorescence, 1 uM abt: 1 uM ABT-126
From the text: as §1, §2, §3, §4, §5

[4] = YFP quench plate reader assay, response to TC-5619; conditions: LX293T YFP reporter cells; for percent quench of YFP fluorescence, 1 nM brd: 1 nM TC-5619; for percent quench of YFP fluorescence, 3 nM brd: 3 nM TC-5619; for percent quench of YFP fluorescence, 10 nM brd: 10 nM TC-5619; for percent quench of YFP fluorescence, 30 nM brd: 30 nM TC-5619; for percent quench of YFP fluorescence, 100 nM brd: 100 nM TC-5619; for percent quench of YFP fluorescence, 300 nM brd: 300 nM TC-5619; for percent quench of YFP fluorescence, 1 uM brd: 1 uM TC-5619
From the text: as §1, §2, §3, §4, §5

[5] = YFP quench plate reader assay, response to APN-1125; conditions: LX293T YFP reporter cells; for percent quench of YFP fluorescence, 100 nM apn: 100 nM APN-1125; for percent quench of YFP fluorescence, 1 uM apn: 1 uM APN-1125; for percent quench of YFP fluorescence, 30 uM apn: 30 uM APN-1125
From the text: as §1, §2, §3, §4, §5

[6] = YFP quench plate reader assay, response to AZD-0328; conditions: LX293T YFP reporter cells; for percent quench of YFP fluorescence, 100 nM azd: 100 nM AZD-0328; for percent quench of YFP fluorescence, 300 nM azd: 300 nM AZD-0328; for percent quench of YFP fluorescence, 30 uM azd: 30 uM AZD-0328
From the text: as §1, §2, §3, §4, §5

[7] = High throughput electrophysiology in HEK293T cells, AZD-0328; conditions: HEK293T cells, held at −60 mV
Experimental: To confirm the EC50s determined by plate reader as well as develop a better understanding of maximum current flow, the engineered receptors were subjected to high throughput electrophysiology system, as described below. For HEK293T studies, cDNAs encoding ion channels were cloned into pcDNA3.1 using standard recombination techniques. HEK293T cells from Clontech (Lenti-X™ 293T Cell Line) were cultured in DMEM supplemented with 10% FBS and 1% Pen/Strep to 40-50% confluence using standard cell culture protocols, transfected with ion channel plasmids at a concentration of 18 μg per 15 cm dish using Fugene 6, and grown for an additional 24 hours. Cells were then assayed on a electrophysiological system (IonFluxHT and/or Mercury, Fluxion Biosciences) in which dose-response relationships may be assessed through a microfluidics-based platform for establishing whole cell configurations. Ensemble plates were primed with extracellular buffer (140 mM NaCl, 5 mM KCl, 2 mM CaCl2), 1 mM MgCl2, 10 mM HEPES, and 10 mM glucose, pH 7.2 with NaOH, mOsm 310), intracellular buffer (145 mM CsCl, 2 mM CaCl2, 2 mM MgCl2, 10 mM HEPES, and 10 mM EGTA, pH 7.2 with CsOH, mOsm 305), as adapted from Lynagh and Lynch, and test compounds (stocks prepared fresh) diluted in extracellular buffer. Cells were then released from the plate with Accutase, centrifuged, resuspended in extracellular buffer, and loaded into Ensemble plates. Cells were then subjected to a standard protocol for priming, trapping, breaking, and establishing whole cell configuration, with cells held at −60 mV throughout the recording. After recording baseline, progressive doses of test compounds were applied using the IonFlux software to assess dose response relationships. Data were then analyzed off-line using custom Python scripts to convert data to .csv format, re-plot traces, and apply QC measurements to reject unstable recordings (i.e. thresholding based on access resistance and/or standard deviation in baseline, as well as artifact rejection). Peak currents were then calculated and population data were fit using a 4-parameter logistic equation as described by the Hill Equation. Currents were measured on an automated patch clamp system (Fluxion Biosciences) following 1 second addition of drug and the EC50 values calculated are tabulated below in Table 13.

[8] = YFP quench plate reader assay, response to RG3487; conditions: LX293T YFP reporter cells; for percent quench of YFP fluorescence, 30 nM fac: 30 nM RG3487; for percent quench of YFP fluorescence, 100 nM fac: 100 nM RG3487; for percent quench of YFP fluorescence, 300 nM fac: 300 nM RG3487; for percent quench of YFP fluorescence, 10 uM fac: 10 uM RG3487; for percent quench of YFP fluorescence, 30 uM fac: 30 uM RG3487
From the text: as §1, §2, §3, §4, §5

Molecule | percent quench of YFP fluorescence, 1 uM tc6 [1] [%] | percent quench of YFP fluorescence, 10 uM tc6 [1] [%] | percent quench of YFP fluorescence, 500 uM tc6 [1] [%] | percent quench of YFP fluorescence, 10 uM ach [2] [%] | percent quench of YFP fluorescence, 100 uM ach [2] [%] | percent quench of YFP fluorescence, 1 mM ach [2] [%] | percent quench of YFP fluorescence, 3 mM ach [2] [%] | percent quench of YFP fluorescence, 50 nM abt [3] [%] | percent quench of YFP fluorescence, 100 nM abt [3] [%] | percent quench of YFP fluorescence, 300 nM abt [3] [%] | percent quench of YFP fluorescence, 1 uM abt [3] [%] | percent quench of YFP fluorescence, 1 nM brd [4] [%] | percent quench of YFP fluorescence, 3 nM brd [4] [%] | percent quench of YFP fluorescence, 10 nM brd [4] [%] | percent quench of YFP fluorescence, 30 nM brd [4] [%] | percent quench of YFP fluorescence, 100 nM brd [4] [%] | percent quench of YFP fluorescence, 300 nM brd [4] [%] | percent quench of YFP fluorescence, 1 uM brd [4] [%] | percent quench of YFP fluorescence, 100 nM apn [5] [%] | percent quench of YFP fluorescence, 1 uM apn [5] [%] | other results
B1 | 31.9 | 25.54 | 21.13 | −0.46 | −4.93 | −11.18 | −3.53 | −11.83 | −11.5 | −8.01 | −9.34 | −9.78 | 12.06 | −9.02 | 16.3 | −7.44 | −10.93 | −4.55 | −18.17 | −15.2 | percent quench of YFP fluorescence, 30 uM apn [5]: −14%; percent quench of YFP fluorescence, 100 nM azd [6]: −0.71%; percent quench of YFP fluorescence, 300 nM azd [6]: −1.73%; percent quench of YFP fluorescence, 30 uM azd [6]: 47.39%; EC50 AZD-0328 [7]: no activity; percent quench of YFP fluorescence, 30 nM fac [8]: 38.08%; percent quench of YFP fluorescence, 100 nM fac [8]: −14.37%; percent quench of YFP fluorescence, 300 nM fac [8]: 19.41%; percent quench of YFP fluorescence, 10 uM fac [8]: 67.33%; percent quench of YFP fluorescence, 30 uM fac [8]: 79.67%
B2 | 36.07 | 31.35 | 28.18 | 15.45 | 13.77 | 27.42 | 53.62 | −1.68 | −2.25 | −2.37 | 3.68 | −1.52 | −5.35 | −3.49 | 2.16 | 4.18 | 70.2 | 43.11 | −5.71 | 13.03 | percent quench of YFP fluorescence, 30 uM apn [5]: 25.2%; percent quench of YFP fluorescence, 100 nM azd [6]: 24.49%; percent quench of YFP fluorescence, 300 nM azd [6]: 45.34%; percent quench of YFP fluorescence, 30 uM azd [6]: 71.21%; EC50 AZD-0328 [7]: no activity; percent quench of YFP fluorescence, 30 nM fac [8]: 45.76%; percent quench of YFP fluorescence, 100 nM fac [8]: 63.92%; percent quench of YFP fluorescence, 300 nM fac [8]: 79.43%; percent quench of YFP fluorescence, 10 uM fac [8]: 80.1%; percent quench of YFP fluorescence, 30 uM fac [8]: 84.91%
